Patent US20190169306A1 (UNIVERSITY OF SOUTHAMPTON, published 2019)

Target: T1, human CD27 (human, UniProt P26842 20-260)
T1 sequence (looked up): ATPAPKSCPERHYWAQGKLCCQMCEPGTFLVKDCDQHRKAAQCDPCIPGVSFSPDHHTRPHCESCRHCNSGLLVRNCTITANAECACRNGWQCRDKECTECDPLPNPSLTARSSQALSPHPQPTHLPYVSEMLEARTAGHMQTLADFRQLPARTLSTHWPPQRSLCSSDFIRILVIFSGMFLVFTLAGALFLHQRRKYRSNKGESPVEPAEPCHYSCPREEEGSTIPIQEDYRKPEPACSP
Assay: cell-based or functional assay

B1: varlilumab (anti-human CD27 mAb) (antibody, V domains shown)
VH: QVQLVESGGGVVQPGRSLRLSCAASGFTFSSYDMHWVRQAPGKGLEWVAVIWYDGSNKYYADSVKGRFTISRDNSKNTLYLQMNSLRAEDTAVYYCARGSGNWGFFDYWGQGTLVTVSS
VL: DIQMTQSPSSLSASVGDRVTITCRASQGISRWLAWYQQKPEKAPKSLIYAASSLQSGVPSRFSGSGSGTDFTLTISSLQPEDFATYYCQQYNTYPRTFGQGTKVEIK
  level of CD14 on monocytes in human PBMC cultures after 48 hours (flow cytometry): 2 fold
  monocyte number in human PBMC cultures after 48 hours with 5 µg/mL mAb (flow cytometry): 3 fold
